Results on 2 molecules are retold here after EP1165781B1 (ELI LILLY AND COMPANY, dated 2007).

In test [1] the target is FasLigand (monomer) (Homo sapiens (Human)) (UniProt P48023). Nature of the test: SPR (Biacore 2000), FasL amine-coupled to CM5 chip, Fas in solution.
Test [2] deals with T1, FLINT (FAS Ligand Inhibitory Protein), mature human FLINT (human, UniProt O95407 30-300).
T1 construct: also called mature FLINT; native FLINT
T1 sequence: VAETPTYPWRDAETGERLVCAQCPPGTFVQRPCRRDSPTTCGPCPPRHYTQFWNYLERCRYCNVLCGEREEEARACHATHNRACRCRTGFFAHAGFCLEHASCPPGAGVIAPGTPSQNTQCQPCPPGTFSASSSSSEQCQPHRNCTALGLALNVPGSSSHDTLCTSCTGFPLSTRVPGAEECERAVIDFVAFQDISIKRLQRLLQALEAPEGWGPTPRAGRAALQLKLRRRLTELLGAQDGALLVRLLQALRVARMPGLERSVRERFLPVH
Nature of the test: SPR (Biacore 2000), FasL amine-coupled to CM5 chip, FLINT in solution. A general note: SPR reads the build-up and loss of mass on a sensor chip optically.

The term Kd denotes a measure of binding affinity in units of concentration. Turning to “Fas/Fc chimera (R&D Systems) (Fc fusion)”, the Kd in test [1] was found to be 162 nM.

B1: FasLigand (monomer) (ligand)
chain: QLFHLQKELAELRESTSQMHTASSLEKQIGHPSPPPEKKELRKVAHLTGKSNSRSMPLEWEDTYGIVLLSGVKYKKGGLVINETGLYFVYSKVYFRGQSCNNLPLSHKVYMRNSKYPQDLVMMEGKMMSYCTTGQMWARSSYLGAVFNLTSADHLYVNVSELSLVNFEESQTFFGLYKL
modifications: Amine-coupled through lysines to a CM5 chip.
notes: Amine-coupled to a CM5 chip; also called Fas Ligand (Kamiya Biomedical Company)
In turn, B1 showed a dissociation constant (Kd) in test [2] of 113 nM.
